According to US20230265179A1 (TWIST BIOSCIENCE, published 2023):

B1: IL1RL2-156 (antibody, V domains shown)
VH: EVQLLESGGGLVQPGGSLRLSCAASGFTFSSYWNHWVRQAPGKGLEWVSTIGPSGTSTYYADSVKGRFTISRDNSKNTLYLQMNSLRAEDTAVYYCAKSTPNIPLAYWGQGTLVTVSS
VL: DIQMTQSPSSLSASVGDRVTITCRASQSIRRYLNWYQQKPGKAPKLLIYDASSSQSGVPSRFSGSGSGTDFTLTISSLQPEDFATYYCQQSTILPLTFGQGTKVEIK
notes: IgG2
B2: IL1RL2-50 (VHH)
VHH: EVQLVESGGGLVQPGGSLRLSCAASGSIFSIDAMGWFRQAPGKERESVAIIKTDGSTYYADSVKGRFTISADNSKNTAYLQMNSLKPEDTAVYYCAHRLGYCSGGSCYWPNYFDYWGQGTLVTVSS
notes: VHH-Fc based on IgG2 Fc
B3: IL1RL2-28 (VHH)
VHH: EVQLVESGGGLVQPGGSLRLSCAASGFTLNDYAMGWFRQAPGKEREWVSSINWSGSTYYADSVKGRFTISADNSKNTAYLQMNSLKPEDTAVYYCAKAYSSSWPYFDYWGQGTLVTVSS
notes: VHH-Fc based on IgG2 Fc
B4: IL1RL2-52 (VHH)
VHH: EVQLVESGGGLVQPGGSLRLSCAASGRTSTYDMGWFRQAPGKEREFVGAISWSGGLTSYADSVKGRFTISADNSKNTAYLQMNSLKPEDTAVYYCADVNGDWGQGTLVTVSS
notes: VHH-Fc based on IgG2 Fc
B5: IL1RL2-38 (VHH)
VHH: EVQLVESGGGLVQPGGSLRLSCAASGRSRYGMGWFRQAPGKEREFVAAINWNGASTYYADSVKGRFTISADNSKNTAYLQMNSLKPEDTAVYYCAVSQPLNYYTYYDARRYDWGQGTLVTVSS
notes: VHH-Fc based on IgG2 Fc
B6: IL1RL2-42 (VHH)
VHH: EVQLVESGGGLVQPGGSLRLSCAASGRTFSSYDMGWFRQAPGKEREFVAAIVWIGGRTYYADSVKGRFTISADNSKNTAYLQMNSLKPEDTAVYYCADVNGDWGQGTLVTVSS
notes: VHH-Fc based on IgG2 Fc
B7: IL1RL2-44 (VHH)
VHH: EVQLVESGGGLVQPGGSLRLSCAASGRSFSTYDMGWFRQAPGKERELVAAISWSGGSTYYADSVKGRFTISADNSKNTAYLQMNSLKPEDTAVYYCADVNGDWGQGTLVTVSS
notes: VHH-Fc based on IgG2 Fc
B8: IL1RL2-56 (VHH)
VHH: EVQLVESGGGLVQPGGSLRLSCAASGRTFSTYDMGWFRQAPGKEREFVAAISWGGGLTVYADSVKGRFTISADNSKNTAYLQMNSLKPEDTAVYYCADVNGDWGQGTLVTVSS
notes: VHH-Fc based on IgG2 Fc
B9: IL1RL2-48 (VHH)
VHH: EVQLVESGGGLVQPGGSLRLSCAASGRTFSSYDMGWFRQAPGKERELVAAITWNSGSTLYADSVKGRFTISADNSKNTAYLQMNSLKPEDTAVYYCADVNGDWGQGTLVTVSS
notes: VHH-Fc based on IgG2 Fc
B10: IL1RL2-33 (VHH)
VHH: EVQLVESGGGLVQPGGSLRLSCAASGRSFNLYYMGWFRQAPGKEREFVASIFTDDGDSYYADSVKGRFTISADNSKNTAYLQMNSLKPEDTAVYYCAAGAGWAGTMTDYNWGQGTLVTVSS
notes: VHH-Fc based on IgG2 Fc
B11: IL1RL2-158 (antibody, V domains shown)
VH: EVQLLESGGGLVQPGGSLRLSCAASGFTFSSYFMSWVRQAPGKGLEWVSEISPSGSETYYADSVKGRFTISRDNSKNTLYLQMNSLRAEDTAVYYCARAYSSGWSLPFDYWGQGTLVTVSS
VL: DIQMTQSPSSLSASVGDRVTITCRASQGVRTSLAWYQQKPGKAPKLLIYATSTLQSGVPSRFSGSGSGTDFTLTISSLQPEDFATYYCAQGLRKPKTFGQGTKVEIK
notes: IgG2
B12: IL1RL2-40 (VHH)
VHH: EVQLVESGGGLVQPGGSLRLSCAASGFTFSTYTMGWFRQAPGKEREFVAGIAWNGASGTLTSYADSVKGRFTISADNSKNTAYLQMNSLKPEDTAVYYCASAGRWGQGTLVTVSS
notes: VHH-Fc based on IgG2 Fc
B13: IL1RL2-46 (VHH)
VHH: EVQLVESGGGLVQPGGSLRLSCAASGFTLGDYVMGWFRQAPGKEREFVATIRWGTTDTYYADSVKGRFTISADNSKNTAYLQMNSLKPEDTAVYYCQSWYYDILTGYSDYYYMDVWGQGTLVTVSS
notes: VHH-Fc based on IgG2 Fc
B14: IL1RL2-26 (VHH)
VHH: EVQLVESGGGLVQPGGSLRLSCAASGSIFSIYDMGWFRQAPGKEREFVAAISGWSGGRTSYADSVKGRFTISADNSKNTAYLQMNSLKPEDTAVYYCAAIAYEEGVYRWDWGQGTLVTVSS
notes: VHH-Fc based on IgG2 Fc
B15: IL1RL2-53 (VHH)
VHH: EVQLVESGGGLVQPGGSLRLSCAASGSTFSPNVMGWFRQAPGKEREFVAAITWSGSSTTEYADSVKGRFTISADNSKNTAYLQMNSLKPEDTAVYYCAAANEYWVYVNPNRYTWGQGTLVTVSS
notes: VHH-Fc based on IgG2 Fc
B16: IL1RL2-51 (VHH)
VHH: EVQLVESGGGLVQPGGSLRLSCAASGFTFSPSWMGWFRQAPGKEREWVSSIDYSAEDTYYADSVKGRFTISADNSKNTAYLQMNSLKPEDTAVYYCAAFDGYSGSDWGQGTLVTVSS
B17: IL1RL2-16 (VHH)
VHH: EVQLVESGGGLVQPGGSLRLSCAASGSDFSIKAMGWFRQAPGKEREFVADIYTSTTTNYTNYADSVKGRFTISADNSKNTAYLQMNSLKPEDTAVYYCAAIAYEEGVYRWDWGQGTLVTVSS
notes: VHH-Fc based on IgG2 Fc
B18: IL1RL2-32 (VHH)
VHH: EVQLVESGGGLVQPGGSLRLSCAASGNDFSIKAMGWFRQAPGKEREFVADIYTSTTTNYTNYADSVKGRFTISADNSKNTAYLQMNSLKPEDTAVYYCAAIAHEEGVYRWDWGQGTLVTVSS
notes: VHH-Fc based on IgG2 Fc
B19: IL1RL2-45 (VHH)
VHH: EVQLVESGGGLVQPGGSLRLSCAASGFDFSVSWMGWFRQAPGKEREFVGSIDWITTNIYYADSVKGRFTISADNSKNTAYLQMNSLKPEDTAVYYCAANIEAGTTKSQGWGQGTLVTVSS
notes: VHH-Fc based on IgG2 Fc
B20: IL1RL2-47 (VHH)
VHH: EVQLVESGGGLVQPGGSLRLSCAASGGTFSNYAMGWFRQAPGKEREFVAAIGGVTDYADSVKGRFTISADNSKNTAYLQMNSLKPEDTAVYYCAAFAYEEGVYRWDWGQGTLVTVSS
notes: VHH-Fc based on IgG2 Fc
B21: IL1RL2-55 (VHH)
VHH: EVQLVESGGGLVQPGGSLRLSCAASGYTDSNLWMGWFRQAPGKEREFVASIDWSGRSTYYADSVKGRFTISADNSKNTAYLQMNSLKPEDTAVYYCAANGIESYGWGNRHFNWGQGTLVTVSS
notes: VHH-Fc based on IgG2 Fc
B22: IL1RL2-19 (VHH)
VHH: EVQLVESGGGLVQPGGSLRLSCAASGYTDSNLWMGWFRQAPGKEREFVASVNWSGKDTYYADSVKGRFTISADNSKNTAYLQMNSLKPEDTAVYYCAANGIESYGWGNRHFNWGQGTLVTVSS
notes: VHH-Fc based on IgG2 Fc
B23: IL1RL2-13 (VHH)
VHH: EVQLVESGGGLVQPGGSLRLSCAASGYTDSNLWMGWFRQAPGKEREFVGSIDWIPSNIYYADSVKGRFTISADNSKNTAYLQMNSLKPEDTAVYYCAANGIESYGWGNRHFNWGQGTLVTVSS
notes: VHH-Fc based on IgG2 Fc

Target: T1, IL1RL2 over-expressed on Expi293 cells (UniProt Q9HB29 20-575, limits assumed)
T1 construct: whole, on cells; Target of the flow cytometry assay; MFI ratio is over-expressing cells over parent cells
T1 sequence (looked up): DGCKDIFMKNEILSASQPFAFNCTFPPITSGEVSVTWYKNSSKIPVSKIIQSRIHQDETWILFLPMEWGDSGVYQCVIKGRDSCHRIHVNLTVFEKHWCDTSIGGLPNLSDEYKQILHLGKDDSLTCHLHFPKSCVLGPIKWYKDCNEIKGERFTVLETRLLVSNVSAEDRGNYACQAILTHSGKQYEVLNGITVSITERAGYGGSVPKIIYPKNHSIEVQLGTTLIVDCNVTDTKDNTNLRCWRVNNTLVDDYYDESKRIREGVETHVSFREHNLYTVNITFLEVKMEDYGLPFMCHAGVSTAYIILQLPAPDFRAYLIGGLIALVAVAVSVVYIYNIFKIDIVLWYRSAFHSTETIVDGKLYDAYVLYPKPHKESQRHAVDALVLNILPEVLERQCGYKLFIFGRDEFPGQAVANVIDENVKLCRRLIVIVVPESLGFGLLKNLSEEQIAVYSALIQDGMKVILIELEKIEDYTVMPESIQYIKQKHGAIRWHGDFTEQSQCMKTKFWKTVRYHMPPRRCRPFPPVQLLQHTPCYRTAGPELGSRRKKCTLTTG
Test: flow cytometry, over-expressing Expi293 vs parent cells, 100 nM antibody;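 note: ratio is mean fluorescence intensity on over-expressing Expi293 cells divided by that measured on parental Expi293 cells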
Method: All incubations and washes were in buffer containing PBS+1% BSA. MFI Ratio is defined by the mean fluorescence intensity (MFI) of the cytokine over-expressing Expi293 cell over the Expi293 parent cell. […] EC50 was calculated in GraphPad Prism.

Binder | 100 nM FACS (MFI Ratio)
B1 | 0.69
B2 | 151
B3 | 13.6
B4 | 6.88
B5 | 7.41
B6 | 2.47
B7 | 0.95
B8 | 3.83
B9 | 7.83
B10 | 15.2
B11 | 14.8
B12 | 31
B13 | 15.6
B14 | 39.5
B15 | 4.14
B16 | 9.68
B17 | 37.6
B18 | 20.1
B19 | 6.82
B20 | 13.2
B21 | 49.7
B22 | 13.8
B23 | 11.3
